Assay results as given in paper PMC5726920.

Tests used:
[1] = target: T1, protein deglycase DJ-1, Q99497; assay: native MS; details: remark: other sources report otherwise
T1 chain: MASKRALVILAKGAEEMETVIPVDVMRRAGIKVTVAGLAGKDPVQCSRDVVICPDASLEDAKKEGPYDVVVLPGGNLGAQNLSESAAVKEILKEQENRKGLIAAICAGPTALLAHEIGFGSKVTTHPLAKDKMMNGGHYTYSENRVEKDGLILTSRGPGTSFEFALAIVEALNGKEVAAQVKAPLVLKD

[2] = target: T2, heart isozyme of murine fatty acid binding protein (mouse), P11404; assay: native MS; details: remark: other sources report otherwise
T2 chain: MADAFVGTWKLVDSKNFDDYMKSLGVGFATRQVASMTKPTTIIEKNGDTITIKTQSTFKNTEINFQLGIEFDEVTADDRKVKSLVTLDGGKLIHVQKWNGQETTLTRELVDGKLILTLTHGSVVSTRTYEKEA

B1: protein deglycase DJ-1, Q99497 1-189 (enzyme)
chain: MASKRALVILAKGAEEMETVIPVDVMRRAGIKVTVAGLAGKDPVQCSRDVVICPDASLEDAKKEGPYDVVVLPGGNLGAQNLSESAAVKEILKEQENRKGLIAAICAGPTALLAHEIGFGSKVTTHPLAKDKMMNGGHYTYSENRVEKDGLILTSRGPGTSFEFALAIVEALNGKEVAAQVKAPLVLKD
Question: For B1, which stoichiometry N [1] is on record?
Answer: 2

B2: heart isozyme of murine fatty acid binding protein, P11404 1-133 (natural protein)
chain: MADAFVGTWKLVDSKNFDDYMKSLGVGFATRQVASMTKPTTIIEKNGDTITIKTQSTFKNTEINFQLGIEFDEVTADDRKVKSLVTLDGGKLIHVQKWNGQETTLTRELVDGKLILTLTHGSVVSTRTYEKEA
Question: For B2, which stoichiometry N [2] is on record?
Answer: 2
